Molecular target: the molecule itself
Assay: cryo-EM structure

Row | Protein | stoichiometry N
1 | E. coli OmpF porin channel (natural protein) AEIYNKDGNKVDLYGKAVGLHYFSKGNGENSYGGNGDMTYARLGFKGETQINSDLTGYGQWEYNFQGNNSEGADAQTGNKTRLAFAGLKYADVGSFDYGRNYGVVYDALGYTDMLPEFGGDTAYSDDFFVGRVGGVATYRNSNFFGLVDGLNFAVQYLGKNERDTARRSNGDGVGGSISYEYEGFGIVGAYGAADRTNLQEAQPLGNGKKAEQWATGLKYDANNIYLAANYGETRNATPITNKFTNTSGFANKTQDVLLVAQYQFDFGLRPSIAYTKSKAKDVEGIGDVDLVNYFEVGATYYFNKNMSTYVDYIINQIDSDNKLGVGSDDTVAVGIVYQF | 3
2 | E. coli OmpC outer membrane osmoporin channel (natural protein) AEVYNKDGNKLDLYGKVDGLHYFSDNKDVDGDQTYMRLGFKGETQVTDQLTGYGQWEYQIQGNSAENENNSWTRVAFAGLKFQDVGSFDYGRNYGVVYDVTSWTDVLPEFGGDTYGSDNFMQQRGNGFATYRNTDFFGLVDGLNFAVQYQGKNGNPSGEGFTSGVTNNGRDALRQNGDGVGGSITYDYEGFGIGGAISSSKRTDAQNTAAYIGNGDRAETYTGGLKYDANNIYLAAQYTQTYNATRVGSLGWANKAQNFEAVAQYQFDFGLRPSLAYLQSKGKNLGRGYDDEDILKYVDVGATYYFNKNMSTYVDYKINLLDDNQFTRDAGINTDNIVALGLVYQF | 3
3 | E. coli glutamate decarboxylase GadB (enzyme) MDKKQVTDLRSELLDSRFGAKSISTIAESKRFPLHEMRDDVAFQIINDELYLDGNARQNLATFCQTWDDENVHKLMDLSINKNWIDKEEYPQSAAIDLRCVNMVADLWHAPAPKNGQAVGTNTIGSSEACMLGGMAMKWRWRKRMEAAGKPTDKPNLVCGPVQICWHKFARYWDVELREIPMRPGQLFMDPKRMIEACDENTIGVVPTFGVTYTGNYEFPQPLHDALDKFQADTGIDIDMHIDAASGGFLAPFVAPDIVWDFRLPRVKSISASGHKFGLAPLGCGWVIWRDEEALPQELVFNVDYLGGQIGTFAINFSRPAGQVIAQYYEFLRLGREGYTKVQNASYQVAAYLADEIAKLGPYEFICTGRPDEGIPAVCFKLKDGEDPGYTLYDLSERLRLRGWQVPAFTLGGEATDIVVMRIMCRRGFEMDFAELLLEDYKASLKYLSDHPKLQGIAQQNSFKHT | 6
